Measurements as given in patent EP4582451A1 (Changchun Genescience Pharmaceutical Co., Ltd., dated 2025).
Where two headings read alike, the source gives them in different places. Blank lines part the entries; values can stand above or below the binder they belong to.

Experiments:
[1] = target: T1, human thyroid-stimulating hormone receptor (TSHR) (human, UniProt P16473 21-764); assay: flow cytometry (FACS), 293 cells overexpressing human TSHR
T1 construct: whole, on cells; Overexpressed on 293 cells; also called human TSHR
T1 sequence (P16473 21-764): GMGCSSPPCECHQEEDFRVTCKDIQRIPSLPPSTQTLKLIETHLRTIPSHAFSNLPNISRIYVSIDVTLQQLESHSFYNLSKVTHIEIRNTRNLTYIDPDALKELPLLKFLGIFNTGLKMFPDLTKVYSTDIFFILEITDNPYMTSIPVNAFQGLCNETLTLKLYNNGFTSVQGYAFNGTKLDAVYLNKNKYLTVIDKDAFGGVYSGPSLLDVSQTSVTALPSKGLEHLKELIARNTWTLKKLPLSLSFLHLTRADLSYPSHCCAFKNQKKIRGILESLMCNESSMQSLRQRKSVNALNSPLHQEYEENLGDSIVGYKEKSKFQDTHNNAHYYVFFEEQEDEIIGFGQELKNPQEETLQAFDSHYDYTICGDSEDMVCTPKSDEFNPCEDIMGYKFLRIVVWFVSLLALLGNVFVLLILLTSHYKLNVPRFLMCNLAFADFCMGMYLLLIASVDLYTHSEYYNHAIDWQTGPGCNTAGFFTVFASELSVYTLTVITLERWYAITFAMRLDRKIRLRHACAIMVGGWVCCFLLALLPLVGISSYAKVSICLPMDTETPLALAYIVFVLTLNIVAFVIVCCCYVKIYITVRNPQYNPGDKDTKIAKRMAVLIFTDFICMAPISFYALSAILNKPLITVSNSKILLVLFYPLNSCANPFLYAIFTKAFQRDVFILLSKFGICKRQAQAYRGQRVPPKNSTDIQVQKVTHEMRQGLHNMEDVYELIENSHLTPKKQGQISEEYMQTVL

[2] = target: T2, mouse thyroid-stimulating hormone receptor (TSHR) (mouse, UniProt P47750 22-764); assay: flow cytometry (FACS), 293 cells overexpressing mouse TSHR
T2 construct: whole, on cells; Overexpressed on 293 cells; also called mouse TSHR; murine TSHR
T2 sequence (P47750 22-764): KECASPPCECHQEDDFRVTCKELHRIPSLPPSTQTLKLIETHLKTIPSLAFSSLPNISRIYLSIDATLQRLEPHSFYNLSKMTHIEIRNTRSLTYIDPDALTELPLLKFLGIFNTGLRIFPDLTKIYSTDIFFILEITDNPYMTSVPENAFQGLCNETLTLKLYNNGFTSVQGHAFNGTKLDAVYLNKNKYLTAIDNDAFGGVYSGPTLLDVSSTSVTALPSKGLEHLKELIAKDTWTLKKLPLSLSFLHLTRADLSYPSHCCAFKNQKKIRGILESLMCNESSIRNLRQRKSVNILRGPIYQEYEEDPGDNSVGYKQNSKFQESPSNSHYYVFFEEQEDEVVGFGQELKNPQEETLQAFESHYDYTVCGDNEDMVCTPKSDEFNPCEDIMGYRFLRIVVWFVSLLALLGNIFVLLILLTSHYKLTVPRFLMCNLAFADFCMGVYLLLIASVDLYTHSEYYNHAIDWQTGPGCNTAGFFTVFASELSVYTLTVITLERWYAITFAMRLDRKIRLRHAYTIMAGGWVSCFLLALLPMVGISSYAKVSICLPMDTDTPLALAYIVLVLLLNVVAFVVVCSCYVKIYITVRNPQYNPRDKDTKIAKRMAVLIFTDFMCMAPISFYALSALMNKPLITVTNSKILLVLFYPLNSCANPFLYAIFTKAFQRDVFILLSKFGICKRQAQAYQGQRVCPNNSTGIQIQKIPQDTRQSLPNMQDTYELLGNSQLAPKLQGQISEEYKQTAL

[3] = target: T3, monkey thyroid-stimulating hormone receptor (TSHR) (monkey, UniProt A0A2K5X226 21-764); assay: flow cytometry (FACS), 293 cells overexpressing monkey TSHR
T3 construct: Overexpressed on 293 cells; also called monkey TSHR
T3 sequence (A0A2K5X226 entry or part of it limits assumed, form in doubt): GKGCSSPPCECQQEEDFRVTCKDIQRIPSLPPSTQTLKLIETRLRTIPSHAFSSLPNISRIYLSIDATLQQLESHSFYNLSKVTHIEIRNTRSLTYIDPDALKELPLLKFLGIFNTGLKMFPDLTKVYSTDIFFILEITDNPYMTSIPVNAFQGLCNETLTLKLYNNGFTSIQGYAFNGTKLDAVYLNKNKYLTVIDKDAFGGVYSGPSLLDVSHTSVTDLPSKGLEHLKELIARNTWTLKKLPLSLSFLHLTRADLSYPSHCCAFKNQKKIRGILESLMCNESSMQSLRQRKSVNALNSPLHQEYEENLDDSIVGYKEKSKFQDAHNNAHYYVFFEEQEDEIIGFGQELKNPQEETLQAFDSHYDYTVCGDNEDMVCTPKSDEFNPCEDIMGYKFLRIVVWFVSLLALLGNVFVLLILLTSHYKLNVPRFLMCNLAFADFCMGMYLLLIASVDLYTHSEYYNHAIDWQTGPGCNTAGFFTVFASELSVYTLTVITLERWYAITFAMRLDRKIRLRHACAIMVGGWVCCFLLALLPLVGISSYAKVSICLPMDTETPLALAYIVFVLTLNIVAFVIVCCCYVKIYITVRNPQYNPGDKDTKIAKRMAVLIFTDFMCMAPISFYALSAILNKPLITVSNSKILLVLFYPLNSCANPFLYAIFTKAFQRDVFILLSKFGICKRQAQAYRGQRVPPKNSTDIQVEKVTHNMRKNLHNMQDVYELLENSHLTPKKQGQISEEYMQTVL

[4] = target: T1, human thyroid-stimulating hormone …; assay: cell-based or functional assay
[5] = target: T1, human thyroid-stimulating hormone …; assay: flow cytometry (FACS), 293 cells overexpressing human TSHR; remark: listed apart in the source
[6] = target: T2, mouse thyroid-stimulating hormone …; assay: flow cytometry (FACS), 293 cells overexpressing mouse TSHR; remark: listed apart in the source
[7] = target: T3, monkey thyroid-stimulating hormone …; assay: flow cytometry (FACS), 293 cells overexpressing monkey TSHR; remark: listed apart in the source
[8] = target: T4, hFcRn-Avi (Biosystems, FCM-H82W7) (human (printed as hFcRn), UniProt P55899 24-297; P61769 21-119, biotin on the Avi tag is implied by capture on an SA chip); assay: SPR (Biacore 8K+), hFcRn-Avi captured on SA chip, antibody in flow, pH 6.0, 25 C, steady-state fit
T4 construct: Bought reagent

[9] = target: T1, human thyroid-stimulating hormone …; assay: cell-based or functional assay; remark: listed apart in the source
[10] = target: T2, mouse thyroid-stimulating hormone …; assay: flow cytometry (FACS), 293 cells overexpressing mouse TSHR; remark: listed apart in the source
[11] = target: T3, monkey thyroid-stimulating hormone …; assay: flow cytometry (FACS), 293 cells overexpressing monkey TSHR; remark: listed apart in the source
[12] = target: T1, human thyroid-stimulating hormone …; assay: flow cytometry (FACS), 293 cells overexpressing human TSHR; remark: listed apart in the source
[13] = target: T2, mouse thyroid-stimulating hormone …; assay: flow cytometry (FACS), 293 cells overexpressing mouse TSHR; remark: listed apart in the source
[14] = target: T3, monkey thyroid-stimulating hormone …; assay: flow cytometry (FACS), 293 cells overexpressing monkey TSHR; remark: listed apart in the source

EC50 [1]: 10.4 nM
Maximum binding signal [1]: 402000
EC50 [2]: 11.9 nM
Maximum binding signal [2]: 175000
EC50 [3]: 9.3 nM
Maximum binding signal [3]: 313000
B1: humanized antibody cAb21-VH2-VL2 (antibody, human IgG4 S228P, kappa, V domains shown)
VH: QVQLVQSGAEVKKPGASVKVSCKASGYTFSNYWMQWVRQAPGQGLEWIGEIDPADSYTAYSQKFKGRATMTVDTSTSTVYMELSSLRSEDTAVYYCARRNLLRSGDYWGQGTLVTVSS
VL: AIQLTQSPSSLSASVGDRVTITCSASSGITYIHWYQQKPGKAPKRWIYDSSKLASGVPSRFSGSGSGTDYTLTISSLQPEDFATYYCQQWSGNPPTFGQGTKLEIKR
notes: Humanized from mAb021

EC50 [1]: 8.7 nM
Maximum binding signal [1]: 398000
EC50 [2]: 10.4 nM
Maximum binding signal [2]: 185000
EC50 [3]: 7.8 nM
Maximum binding signal [3]: 308000
B2: humanized antibody cAb21-VH1-VL3 (antibody, human IgG4 S228P, kappa, V domains shown)
VH: QVQLVQSGAEVKKPGASVKVSCKASGYTFSNYWMQWVRQAPGQGLEWMGEIDPADSYTAYSQKFKGRVTMTRDTSTSTVYMELSSLRSEDTAVYYCARRNLLRSGDYWGQGTLVTVSS
VL: AIQLTQSPSSLSASVGDRVTITCSASSGITYIHWYQQKPGKAPKRWIYDSSKLASGVPARFSGSGSGTDYTLTISSLQPEDFATYYCQQWSGNPPTFGQGTKLEIKR
notes: Humanized from mAb021

IC50 (nM), cAMP in 293-human TSHR cells activated by Tab01 [4]: 2.95 nM
IC50 (nM), cAMP in 293-human TSHR cells activated by Tab02 [4]: 2.74 nM
Maximum inhibition rate (%), cAMP in 293-human TSHR cells activated by Tab01 [4]: 105%
Maximum inhibition rate (%), cAMP in 293-human TSHR cells activated by Tab02 [4]: 100%
EC50 [5]: 5.82 nM
Max_MFI [5]: 282000
EC50 [6]: 2.35 nM
Max_MFI [6]: 138000
EC50 [7]: 2.77 nM
Max_MFI [7]: 190000
Kd [8]: 119 nM
Response value (RU) [8]: 73.1 RU
B3: hAb01_G4P_V1 (antibody, human IgG4 S228P, kappa)
heavy: EVQLVESGGGLVKPGGSLRLSCAASGFTLSDYYIYWVRQAPGKGLEWVATISDAVIYTYYADSVKGRFTISRDNAKNSLYLQMNSLRAEDTAVYFCARAYGSSEVMDYWGQGTLVTVSSASTKGPSVFPLAPCSRSTSESTAALGCLVKDYFPEPVTVSWNSGALTSGVHTFPAVLQSSGLYSLSSVVTVPSSSLGTKTYTCNVDHKPSNTKVDKRVESKYGPPCPPCPAPEFLGGPSVFLFPPKPKDTLYITREPEVTCVVVDVSQEDPEVQFNWYVDGVEVHNAKTKPREEQFNSTYRVVSVLTVLHQDWLNGKEYKCKVSNKGLPSSIEKTISKAKGQPREPQVYTLPPSQEEMTKNQVSLTCLVKGFYPSDIAVEWESNGQPENNYKTTPPVLDSDGSFFLYSRLTVDKSRWQEGNVFSCSVMHEALHNHYTQKSLSLSLGK
light: EIVLTQSPATLSLSPGERATLSCSASSSVSYMHWYQQKPGQAPKRWIYDTSKLASGVPARFSGSGSGTDYTLTISSLEPEDFAVYYCQQWSSNPWTFGGGTKLEIKRTVAAPSVFIFPPSDEQLKSGTASVVCLLNNFYPREAKVQWKVDNALQSGNSQESVTEQDSKDSTYSLSSTLTLSKADYEKHKVYACEVTHQGLSSPVTKSFNRGEC
notes: also called hAb01_G4_V1

Kd [8]: 189 nM
Response value (RU) [8]: 60.7 RU
B4: hAb01_G1 (antibody, human IgG1, kappa)
heavy: not shown
light: EIVLTQSPATLSLSPGERATLSCSASSSVSYMHWYQQKPGQAPKRWIYDTSKLASGVPARFSGSGSGTDYTLTISSLEPEDFAVYYCQQWSSNPWTFGGGTKLEIKRTVAAPSVFIFPPSDEQLKSGTASVVCLLNNFYPREAKVQWKVDNALQSGNSQESVTEQDSKDSTYSLSSTLTLSKADYEKHKVYACEVTHQGLSSPVTKSFNRGEC
notes: Same variable regions as hAb01_G4P, constant region subtype hIgG1

IC50(nM), cAMP in 293-human TSHR cells activated by Tab01 (30 nM) [9]: 0.29 nM
IC50(nM), cAMP in 293-human TSHR cells activated by Tab02 (6.5 nM) [9]: 0.23 nM
Inhibition rate (%), cAMP in 293-human TSHR cells activated by Tab01 (30 nM) [9]: 84%
Inhibition rate (%), cAMP in 293-human TSHR cells activated by Tab02 (6.5 nM) [9]: 82.8%
EC50 [10]: 2.09 nM
Maximum binding signal [10]: 129000
EC50 [11]: 2.29 nM
Maximum binding signal [11]: 225000
B5: humanized antibody cAb01-VH3-DA-VL2 (antibody, human IgG4 S228P, kappa, V domains shown)
VH: EVQLVESGGGLVKPGGSLRLSCAASGFTLSDYYIYWVRQAPGKRLEWVATISDAVIYTYYADSVKGRFTISRDNAKNSLYLQMNSLRAEDTAVYFCARAYGSSEVMDYWGQGTLVTVSS
VL: EIVLTQSPATLSLSPGERATLSCSASSSVSYMHWYQQKPGQAPRRWIYDTSKLASGIPARFSGSGSGTDYTLTISSLEPEDFAVYYCQQWSSNPWTFGGGTKLEIKR
notes: Humanized from mAb001

IC50(nM), cAMP in 293-human TSHR cells activated by Tab01 (30 nM) [9]: 1.3 nM
IC50(nM), cAMP in 293-human TSHR cells activated by Tab02 (6.5 nM) [9]: 0.91 nM
Inhibition rate (%), cAMP in 293-human TSHR cells activated by Tab01 (30 nM) [9]: 85.6%
Inhibition rate (%), cAMP in 293-human TSHR cells activated by Tab02 (6.5 nM) [9]: 87.4%
EC50 [10]: 2.4 nM
Maximum binding signal [10]: 113000
EC50 [11]: 2.19 nM
Maximum binding signal [11]: 187000
B6: humanized antibody cAb01-VH1-DA-VL2 (antibody, human IgG4 S228P, kappa, V domains shown)
VH: EVQLVESGGGLVKPGGSLRLSCAASGFTLSDYYIYWVRQAPGKGLEWVSTISDAVIYTYYADSVKGRFTISRDNAKNSLYLQMNSLRAEDTAVYYCARAYGSSEVMDYWGQGTLVTVSS
VL: EIVLTQSPATLSLSPGERATLSCSASSSVSYMHWYQQKPGQAPRRWIYDTSKLASGIPARFSGSGSGTDYTLTISSLEPEDFAVYYCQQWSSNPWTFGGGTKLEIKR
notes: Humanized from mAb001

EC50 [12]: 1.28 nM
Maximum binding signal [12]: 21000
EC50 [13]: 2.52 nM
Maximum binding signal [13]: 11800
EC50 [14]: 0.98 nM
Maximum binding signal [14]: 13600
B7: murine antibody mAb001 (antibody, V domains shown)
VH: EVQLVESGGGLVKPGGSLKLSCAASGFTLSDYYIYWVRQTPEKRLEWVATISDGVIYTYYADSVKGRFTISRDNAKNNLYLQMSSLKSEDTAMYFCARAYGSSEVMDYWGQGTSVTVSS
VL: QIVLTQSPAVLSASPGEKVTMTCSASSSVSYMHWYQQKSGTSPKRWIYDTSKLASGVPARFSGSGSGTSYSLTISSMEAEDAATYYCQQWSSNPWTFGGGTKLEIK
notes: Murine monoclonal antibody from hybridoma

EC50 [12]: 4.74 nM
Maximum binding signal [12]: 30000
EC50 [13]: 8.65 nM
Maximum binding signal [13]: 20800
EC50 [14]: 2.8 nM
Maximum binding signal [14]: 24400
B8: murine antibody mAb012 (antibody, V domains shown)
VH: EVQLQQSGPVLLKPGASVKMSCKASGYTFTDYYMNWVKQSHGKSLEWIGVINPYNGESSNNQKFKGKATMTVDKSSSTAYMELNSLTSEDSAVYYCARCYGYGYYFDYWGQGTTLSVAS
VL: QIVLTQSPAIMSASPGEKVTMTCSATSSVTYMHWYQQKSGTSPKRWIYDTSKLTSGVPPRFSGSGSGTSYSLTISSMEAEDAATYYCQQWSTYPYTFGGGTKLEIK
notes: as for B7

EC50 [12]: 3.5 nM
Maximum binding signal [12]: 52000
EC50 [13]: 10.3 nM
Maximum binding signal [13]: 31600
EC50 [14]: 4.5 nM
Maximum binding signal [14]: 42400
B9: murine antibody mAb021 (antibody, V domains shown)
VH: QVQLQQPGAEHVQPGASVKLSCKASGYTFSNYWMQWVRQRPGQGLDWIGEIDPADSYTAYSQKFKGKATLTVDTSSTTAYMQLSSLTSEDSAVYYCARRNLLRSGDYWGQGTSLTVSS
VL: QIVLTQSPAIMSASPGEKVTMTCSASSGITYIHWYQQKSGTSPKRWIYDSSKLASGVPARFSGSGSGTSYSLTISSMEAEDAATYYCQQWSGNPPTFGAGTKLEVK
notes: as for B7

EC50 [1]: 10.5 nM
Maximum binding signal [1]: 420000
EC50 [2]: 14 nM
Maximum binding signal [2]: 98800
EC50 [3]: 8.1 nM
Maximum binding signal [3]: 269000
B10: humanized antibody cAb12-VH1-QG&S-VL3 (antibody, human IgG4 S228P, kappa, V domains shown)
VH: QVQLVQSGAEVKKPGASVKVSCKASGYTFTDYYMNWVRQAPGQGLEWMGVINPYQGESSNNQKFKGRVTMTRDTSTSTVYMELSSLRSEDTAVYYCARSYGYGYYFDYWGQGTTVTVSS
VL: AIQLTQSPSSLSASVGDRVTITCSATSSVTYMHWYQQKPGKAPKRWIYDTSKLTSGVPPRFSGSGSGTDYTLTISSLQPEDFATYYCQQWSTYPYTFGGGTKLEIKR
notes: Humanized from mAb012

EC50 [1]: 6.5 nM
Maximum binding signal [1]: 445000
EC50 [2]: 15 nM
Maximum binding signal [2]: 135000
EC50 [3]: 9.2 nM
Maximum binding signal [3]: 303000
B11: humanized antibody cAb12-VH3-QG&S-VL3 (antibody, human IgG4 S228P, kappa, V domains shown)
VH: QVQLVQSGAEVKKPGASVKVSCKASGYTFTDYYMNWVKQAPGQGLEWIGVINPYQGESSNNQKFKGRATMTVDKSTSTVYMELSSLRSEDTAVYYCARSYGYGYYFDYWGQGTTVTVSS
VL: AIQLTQSPSSLSASVGDRVTITCSATSSVTYMHWYQQKPGKAPKRWIYDTSKLTSGVPPRFSGSGSGTDYTLTISSLQPEDFATYYCQQWSTYPYTFGGGTKLEIKR
notes: Humanized from mAb012
